According to PMC4529816 (Molecular cancer therapeutics, 2015):

Target: T1, GAL4^DBD-SIN3B (UniProt O75182 1-1162)
T1 sequence (looked up): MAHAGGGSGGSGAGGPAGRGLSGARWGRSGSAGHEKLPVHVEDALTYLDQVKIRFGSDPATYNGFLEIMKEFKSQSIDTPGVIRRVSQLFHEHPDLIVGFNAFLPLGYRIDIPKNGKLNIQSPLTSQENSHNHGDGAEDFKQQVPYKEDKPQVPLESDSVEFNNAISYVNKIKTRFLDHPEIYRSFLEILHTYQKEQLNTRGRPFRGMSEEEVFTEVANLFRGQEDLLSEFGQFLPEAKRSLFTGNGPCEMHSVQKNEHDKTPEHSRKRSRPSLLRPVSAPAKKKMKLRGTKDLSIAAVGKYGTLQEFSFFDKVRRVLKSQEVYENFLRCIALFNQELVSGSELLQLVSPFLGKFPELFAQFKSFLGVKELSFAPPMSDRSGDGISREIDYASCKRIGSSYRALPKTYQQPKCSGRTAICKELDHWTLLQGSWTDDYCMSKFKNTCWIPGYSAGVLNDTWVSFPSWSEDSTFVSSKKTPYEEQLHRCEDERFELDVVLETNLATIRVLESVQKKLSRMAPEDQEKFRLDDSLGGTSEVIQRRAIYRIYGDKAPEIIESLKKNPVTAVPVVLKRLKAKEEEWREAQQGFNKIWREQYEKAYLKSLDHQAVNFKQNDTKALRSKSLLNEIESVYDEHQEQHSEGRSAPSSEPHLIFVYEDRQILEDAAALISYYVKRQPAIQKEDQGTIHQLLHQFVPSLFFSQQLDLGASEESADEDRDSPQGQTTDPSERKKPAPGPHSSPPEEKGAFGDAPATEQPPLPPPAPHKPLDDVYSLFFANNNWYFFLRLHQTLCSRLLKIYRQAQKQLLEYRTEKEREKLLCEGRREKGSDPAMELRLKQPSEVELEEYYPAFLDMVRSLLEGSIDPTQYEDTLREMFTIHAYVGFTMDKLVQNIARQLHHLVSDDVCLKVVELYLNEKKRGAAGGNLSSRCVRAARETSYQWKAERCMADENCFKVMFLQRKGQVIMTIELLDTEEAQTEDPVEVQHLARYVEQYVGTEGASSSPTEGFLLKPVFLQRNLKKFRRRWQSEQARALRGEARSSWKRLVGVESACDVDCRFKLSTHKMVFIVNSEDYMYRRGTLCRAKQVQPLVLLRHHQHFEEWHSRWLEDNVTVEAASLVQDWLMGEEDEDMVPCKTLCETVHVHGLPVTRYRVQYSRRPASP
Test: two-hybrid

B1: VP16^AD-MAD (natural protein, UniProt Q05195 1-221, looked up)
chain: MAAAVRMNIQMLLEAADYLERREREAEHGYASMLPYNNKDRDALKRRNKSKKNNSSSRSTHNEMEKNRRAHLRLCLEKLKGLVPLGPESSRHTTLSLLTKAKLHIKKLEDCDRKAVHQIDQLQREQRHLKRQLEKLGIERIRMDSIGSTVSSERSDSDREEIDVDVESTDYLTGDLDWSSSSVSDSDERGSMQSLGSDEGYSSTSIKRIKLQDSHKACLGL
fold decrease in luciferase activity against the empty vectors: 3.7 fold
